From the supplement of paper PMC7877785
± gives the uncertainty stated by the source.

Assay: self-splicing fitness, log relative to wild type (ln ratio); higher = more splicing; Tetrahymena group I intron in knt gene, E. coli kanamycin selection, DiMSum; sequences stand for … in CUCUCU…GGAGGGAAAAGUUAUCAGGCAUGCACCUGGUAGCUAGUCUUUAAACCAAUAGAUUGCAUCGGUUUAAAAGGCAAGACCGUCAAAUUGCGGGAAAGGGGUCAACAGCCGUUCAGUACCAAGUCUCAGGGGAAACUUUGAGAUGGCCUUGCAAAGGGUAUGGUAAUAAGCUGACGGACAUGGUCCUAACCACGCAGCCAAGUCCUAAGUCAACAGAUCUUCUGUUGAUAUGGAUGCAGUUCACAGACUAAAUGUCGGUCGGGGAAGAUGUAUUCUUCUCAUAAGAUAUAGUCGGACCUCUCCUUAAUGGGAGCUAGCGGAUGAAGUGAUGCAACACUGGAGCCGCUGGGAACUAAUUUGUAUGCGAAAGUAUAUUGAUUAGUUUUGGAGUACUCGUGGUCG
Method in brief: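 Fitness was computed with DiMSum as the error-weighted combination of replicate fold changes, kanamycin versus none, each normalised to wild type. The library randomised all eight intron nucleotides of the P1ex region, with the intron placed in the knt kanamycin-resistance gene on pET-22b(+) in E. coli BL21(DE3). Six replicate transformations were grown overnight at 37°C or 30°C on LB agar with or without 25 μg/mL kanamycin, plus 100 μg/mL carbenicillin, 50 μM IPTG and 0.2% rhamnose. Pooled colonies were amplicon-sequenced on an Illumina HiSeq 2500.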

Sequence | self-splicing fitness (ln) (37 °C) | self-splicing fitness (ln) (30 °C)
CGUGAGCAAUAUUACGCGGA | -1.62 ± 0.39 | 
GGCCAGCAAUAUUACGUUAC | -0.532 ± 0.15 | -2.01 ± 0.12
UUAGAGCAAUAUUACGAAAG | -0.494 ± 0.35 | -2.9 ± 0.4
CUUCAGCAAUAUUACGAACG | 0.406 ± 0.093 | -0.295 ± 0.062
GAUCAGCAAUAUUACGUAGG | -1.48 ± 0.14 | -1.87 ± 0.1
UGAUAGCAAUAUUACGAUCU | 0.105 ± 0.16 | 0.499 ± 0.12
AAGUAGCAAUAUUACGUGCC | -0.766 ± 0.1 | -0.879 ± 0.087
CCCAAGCAAUAUUACGUCUA | -2.92 ± 0.23 | -4.2 ± 0.3
CGCAAGCAAUAUUACGAACG | -1.03 ± 0.14 | -1.23 ± 0.1
GAGGAGCAAUAUUACGCAUG | -2.65 ± 0.3 | -3.19 ± 0.48
ACUAAGCAAUAUUACGGUAA | -1.92 ± 0.18 | -1.56 ± 0.17
AAACAGCAAUAUUACGCAUC | -2.07 ± 0.11 | -2.82 ± 0.13
GGCUAGCAAUAUUACGCGCG | 0.174 ± 0.17 | -0.69 ± 0.14
AGACAGCAAUAUUACGGGGU | -2.25 ± 0.15 | -3.82 ± 0.17
GACAAGCAAUAUUACGCGGC | -3.11 ± 0.21 | -2.75 ± 0.17
GUUGAGCAAUAUUACGAGCG | -1.37 ± 0.25 | 
CACCAGCAAUAUUACGGAUG | -1.84 ± 0.12 | -3.11 ± 0.12
GCGCAGCAAUAUUACGGAGU | -0.744 ± 0.13 | -2 ± 0.11
CAAAAGCAAUAUUACGUGCC | -1.41 ± 0.23 | -2.99 ± 0.24
UGGAAGCAAUAUUACGGUCA | 0.828 ± 0.15 | -0.00492 ± 0.13
UAUGAGCAAUAUUACGGCCU |  | -4 ± 0.37
CAAAAGCAAUAUUACGUAUA | -2.38 ± 0.17 | -3 ± 0.15
CGCGAGCAAUAUUACGAGUU | -3.19 ± 0.26 | -3.3 ± 0.2
CCCCAGCAAUAUUACGGAGA | -1.61 ± 0.15 | -2.32 ± 0.12
GGUGAGCAAUAUUACGAGUU | -0.657 ± 0.16 | -2.39 ± 0.27
AAUUAGCAAUAUUACGCUCU | 0.54 ± 0.15 | -0.501 ± 0.11

Sequence | self-splicing fitness (ln) (37 °C) | self-splicing fitness (ln) (30 °C)
CAUCAGCAAUAUUACGUUGG | -0.639 ± 0.067 | -1.58 ± 0.059
AUCCAGCAAUAUUACGCCAU | -1.27 ± 0.14 | -3.28 ± 0.21
GACUAGCAAUAUUACGAUAG | -1.17 ± 0.12 | -2.95 ± 0.16
GUACAGCAAUAUUACGUAUG | -1.45 ± 0.091 | -2.52 ± 0.086
AACGAGCAAUAUUACGCUGA | -2.29 ± 0.39 | -1.64 ± 0.27
ACGAAGCAAUAUUACGAAGG | -1.4 ± 0.15 | -2.21 ± 0.17
UCUAAGCAAUAUUACGCCUA | -1.36 ± 0.26 | 
GUUGAGCAAUAUUACGAAUC | 0.505 ± 0.25 | -1.91 ± 0.26
UCCCAGCAAUAUUACGUACG | -2.93 ± 0.3 | -3.27 ± 0.2
ACCCAGCAAUAUUACGUGUA | -0.689 ± 0.064 | -1.38 ± 0.06
AGCGAGCAAUAUUACGACAU | -0.624 ± 0.034 | -1.32 ± 0.015
CGUUAGCAAUAUUACGUAGG | -0.845 ± 0.14 | -0.104 ± 0.093
CACCAGCAAUAUUACGAGUU | -1.65 ± 0.087 | -2.42 ± 0.075
UGCGAGCAAUAUUACGAGGU | -2.24 ± 0.28 | -1.68 ± 0.19
ACGUAGCAAUAUUACGGCAU | -0.11 ± 0.099 | -1.31 ± 0.1
GCCAAGCAAUAUUACGACGC | 0.3 ± 0.14 | -0.669 ± 0.11
GUAAAGCAAUAUUACGUGUG | -1 ± 0.088 | -1.34 ± 0.063
UAUCAGCAAUAUUACGUCGG | 0.0416 ± 0.082 | -1.02 ± 0.064
AACGAGCAAUAUUACGCUUG | -2.99 ± 0.29 | -2.67 ± 0.17
GCGGAGCAAUAUUACGUAGG | -0.489 ± 0.15 | -4.18 ± 0.34
GUUGAGCAAUAUUACGAGUU | -2.56 ± 0.33 | 
CCUUAGCAAUAUUACGUCCU | -2.65 ± 0.38 | -2.36 ± 0.17
UUUUAGCAAUAUUACGCUGA | -2.31 ± 0.39 | -1.89 ± 0.36
UUCUAGCAAUAUUACGUAGG | -0.645 ± 0.31 | -2.25 ± 0.24
CCGGAGCAAUAUUACGUCGU | -1.51 ± 0.18 | -3.43 ± 0.22
UUUUAGCAAUAUUACGAUAA | 0.144 ± 0.15 | -0.659 ± 0.14

Sequence | self-splicing fitness (ln) (37 °C) | self-splicing fitness (ln) (30 °C)
GUCGAGCAAUAUUACGAUGG | -1.85 ± 0.18 | -3.01 ± 0.28
UAUUAGCAAUAUUACGCAUA | -0.355 ± 0.26 | -0.754 ± 0.29
AUCCAGCAAUAUUACGAUAA | -1.03 ± 0.19 | -1.56 ± 0.15
AUGGAGCAAUAUUACGCGGU | -2.29 ± 0.25 | -2.6 ± 0.25
UGACAGCAAUAUUACGCUGU | -3.42 ± 0.27 | -4.01 ± 0.24
UUUUAGCAAUAUUACGCUUC | -1.81 ± 0.34 | 
CGUCAGCAAUAUUACGGUCA | 0.201 ± 0.1 | -0.717 ± 0.08
CGAGAGCAAUAUUACGAAUG | -2.03 ± 0.21 | -2.96 ± 0.2
AAUCAGCAAUAUUACGGCUG | -1.87 ± 0.2 | -2.34 ± 0.15
CGGCAGCAAUAUUACGUACA | -0.624 ± 0.14 | -1.26 ± 0.11
AUAGAGCAAUAUUACGCAUC | -2.11 ± 0.25 | -3.91 ± 0.31
GCUUAGCAAUAUUACGACGG | -0.935 ± 0.18 | -1.89 ± 0.17
GCCAAGCAAUAUUACGCCCG | -0.836 ± 0.32 | -2.72 ± 0.29
UGUUAGCAAUAUUACGACUC | -0.182 ± 0.28 | -1.01 ± 0.19
UAGAAGCAAUAUUACGUGCC | -0.962 ± 0.19 | -2.13 ± 0.22
UCCAAGCAAUAUUACGGGUC | -2.17 ± 0.14 | -3.16 ± 0.13
CGUAAGCAAUAUUACGUUCC |  | -2.63 ± 0.3
GUUCAGCAAUAUUACGCCGU | -0.339 ± 0.12 | -1.57 ± 0.1
CCGAAGCAAUAUUACGCAUU | -3.77 ± 0.29 | -3.01 ± 0.2
AUCAAGCAAUAUUACGUUAU | -0.69 ± 0.09 | -2.29 ± 0.1
AGUAAGCAAUAUUACGAAGC | -3.5 ± 0.37 | -3.12 ± 0.27
AAGAAGCAAUAUUACGUCUC | -1.69 ± 0.16 | -2.04 ± 0.12
UAGUAGCAAUAUUACGGAUA | -0.444 ± 0.14 | -2.7 ± 0.26
AUUUAGCAAUAUUACGGGCG | -0.764 ± 0.12 | -1.77 ± 0.12
UUGAAGCAAUAUUACGUUCG | 0.0406 ± 0.088 | -0.397 ± 0.065
